This is an account of results in article PMC6315623.

The target in this test is BS69 MYND domain (residues 427-602) fused to a B42 activation domain (UniProt Q15326). Kind of test: yeast two-hybrid (β-galactosidase activity). The settings on record: n = 3; parent: est. 1; read off a plot.
Sequence of BS69 MYND domain (residues 427-602) fused to a B42 activation domain (Q15326 427-602): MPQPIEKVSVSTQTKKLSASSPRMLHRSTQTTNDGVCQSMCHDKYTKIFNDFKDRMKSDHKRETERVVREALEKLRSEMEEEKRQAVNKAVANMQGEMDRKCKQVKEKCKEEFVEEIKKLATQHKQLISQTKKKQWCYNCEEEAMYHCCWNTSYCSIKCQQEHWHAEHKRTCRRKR

For the substance “HAdV-D9 E1A PXLXP motif fragment, wildtype, LexA DBD fusion I9V”, the response (% of HAdV-A12 positive control) worked out at 1.

Turning to “HAdV-D9 E1A PXLXP motif fragment, wildtype, LexA DBD fusion P10C”, the response (% of HAdV-A12 positive control) amounted to 1.5.

For the substance “HAdV-D9 E1A PXLXP motif fragment, wildtype, LexA DBD fusion T3P”, the response (% of HAdV-A12 positive control) stood at 59.

In the case of “HAdV-D9 E1A PXLXP motif fragment, wildtype, LexA DBD fusion T5V”, the response (% of HAdV-A12 positive control) was determined as 1.
